This is an account of results in patent US20210246166A1 (Bayer, published 2021).

Bridge positions count the residues as written; N and C are the ends. Square brackets hold non-standard residues; d marks the D form. Ends that are not written are not given here. * marks the point of attachment. Pro(trans-4-F) = O=C(O)[C@@H]1C[C@@H](F)CN1; Oic = O=C(O)[C@@H]1C[C@@H]2CCCC[C@@H]2N1; Butanoyl(3,3-Me2) = CC(C)(C)CC(=O)*; tBuAla = CC(C)(C)C[C@H](N)C(=O)O; Gly(cBu) = N[C@H](C(=O)O)C1CCC1; Pen = CC(C)(S)[C@H](N)C(=O)O; Lac = C[C@H](O)C(=O)O; Sar = CNCC(=O)O

For assay [1], the target named is T1, recombinant human MASP1 active protease (amino acids 297-699, C-terminal His Tag) (human, UniProt P48740 297-699).
T1 sequence: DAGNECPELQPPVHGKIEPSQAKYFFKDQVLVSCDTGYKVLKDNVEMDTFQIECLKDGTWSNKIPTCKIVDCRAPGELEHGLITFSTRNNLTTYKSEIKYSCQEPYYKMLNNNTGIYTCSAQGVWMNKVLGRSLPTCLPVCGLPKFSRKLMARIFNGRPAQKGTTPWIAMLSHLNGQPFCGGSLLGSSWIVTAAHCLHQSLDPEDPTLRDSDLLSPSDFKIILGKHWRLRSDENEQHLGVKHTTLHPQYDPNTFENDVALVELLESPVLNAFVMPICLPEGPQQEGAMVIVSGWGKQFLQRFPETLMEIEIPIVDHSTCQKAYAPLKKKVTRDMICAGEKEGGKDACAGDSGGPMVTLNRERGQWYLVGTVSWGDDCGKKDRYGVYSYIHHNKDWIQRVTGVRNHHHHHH
Put plainly: cell-based or functional assay.

In assay [2] the target is recombinant human MASP2 active protease (amino acids 297-686, C-terminal His Tag) (human, UniProt O00187 297-686). Put plainly: cell-based or functional assay.
Chain of recombinant human MASP2 active protease (amino acids 297-686, C-terminal His Tag) (O00187 other isoform, or with tags, fused parts or gaps limits assumed): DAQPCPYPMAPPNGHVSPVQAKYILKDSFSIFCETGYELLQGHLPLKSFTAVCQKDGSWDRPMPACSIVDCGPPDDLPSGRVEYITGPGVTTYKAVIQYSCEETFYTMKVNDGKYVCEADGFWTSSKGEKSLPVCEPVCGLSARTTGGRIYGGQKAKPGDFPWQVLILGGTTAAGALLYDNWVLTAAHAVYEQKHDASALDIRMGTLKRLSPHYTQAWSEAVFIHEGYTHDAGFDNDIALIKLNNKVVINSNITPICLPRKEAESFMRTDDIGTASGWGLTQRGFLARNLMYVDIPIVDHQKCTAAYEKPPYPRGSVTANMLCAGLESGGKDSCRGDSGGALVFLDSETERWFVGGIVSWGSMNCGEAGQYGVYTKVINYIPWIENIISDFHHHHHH

For {(2S,3S)‑2‑((3S)-2-oxopiperazin-1-yl)‑3‑methylpentanoic acid}-CSRSLPPICIAD-OH (disulfide 1-9) [Example 393: ((2S,3S)-2-[(3S)-2-oxopiperazin-1-yl]-3-methylpentanoic acid)-C+SRSLPPIC+IAD-OH], the “human MASP1 IC50” value in assay [1] was 49 nM. Besides, in assay [2], the “human MASP2 IC50” value worked out at 3800 nM.

B1: Example 390: ((N-Me)G)-IC+SRSLP-((trans-4-Fluoro)P)-IC+IPD-OH (peptide)
peptide: [Sar]ICSRSLP[Pro(trans-4-F)]ICIPD-OH
modifications: disulfide 3-11; N-terminus assumed
SMILES: CC[C@H](C)[C@H](NC(=O)CNC)C(=O)N[C@H]1CSSC[C@@H](C(=O)N[C@H](C(=O)N2CCC[C@H]2C(=O)N[C@@H](CC(=O)O)C(=O)O)[C@@H](C)CC)NC(=O)[C@H]([C@@H](C)CC)NC(=O)[C@@H]2C[C@@H](F)CN2C(=O)[C@@H]2CCCN2C(=O)[C@H](CC(C)C)NC(=O)[C@H](CO)NC(=O)[C@H](CCCNC(=N)N)NC(=O)[C@H](CO)NC1=O
With B1, the “human MASP1 IC50” value in assay [1] was found to be 47 nM. Moreover, the “human MASP2 IC50” value in assay [2] was 1300 nM.

B2: Example 389: AIC+SRSLPP-(Cyclobutylglycine)-C+IPD-NH2 (peptide)
peptide: AICSRSLPP[Gly(cBu)]CIPD-NH2
modifications: disulfide 3-11; N-terminus assumed
SMILES: CC[C@H](C)[C@H](NC(=O)[C@H](C)N)C(=O)N[C@H]1CSSC[C@@H](C(=O)N[C@H](C(=O)N2CCC[C@H]2C(=O)N[C@@H](CC(=O)O)C(N)=O)[C@@H](C)CC)NC(=O)[C@H](C2CCC2)NC(=O)[C@@H]2CCCN2C(=O)[C@@H]2CCCN2C(=O)[C@H](CC(C)C)NC(=O)[C@H](CO)NC(=O)[C@H](CCCNC(=N)N)NC(=O)[C@H](CO)NC1=O
B2: the “human MASP1 IC50” value in assay [1] was determined as 46 nM. Further, in assay [2], the “human MASP2 IC50” value came out at 330 nM.

B3: Example 396: (tert-Butylacetic acid)-IC+SRS-((tBu)A)-PPI-(Pen)+I-NH2 (peptide)
peptide: {Butanoyl(3,3-Me2)}-ICSRS[tBuAla]PPI[Pen]I-NH2
modifications: disulfide 2-10
SMILES: CC[C@H](C)[C@H](NC(=O)[C@H]1NC(=O)[C@H]([C@@H](C)CC)NC(=O)[C@@H]2CCCN2C(=O)[C@@H]2CCCN2C(=O)[C@H](CC(C)(C)C)NC(=O)[C@H](CO)NC(=O)[C@H](CCCNC(=N)N)NC(=O)[C@H](CO)NC(=O)[C@@H](NC(=O)[C@@H](NC(=O)CC(C)(C)C)[C@@H](C)CC)CSSC1(C)C)C(N)=O
For the molecule B3, the “human MASP1 IC50” value in assay [1] was 53 nM. Besides, in assay [2], the “human MASP2 IC50” value came to 28 nM.

B4: Example 387: (Lactic)-IC+SRS-((tBu)A)-PPIC+IPD-NH2 (peptide)
peptide: [Lac]ICSRS[tBuAla]PPICIPD-NH2
modifications: disulfide 3-11; N-terminus assumed
SMILES: CC[C@H](C)[C@H](NC(=O)[C@H](C)O)C(=O)N[C@H]1CSSC[C@@H](C(=O)N[C@H](C(=O)N2CCC[C@H]2C(=O)N[C@@H](CC(=O)O)C(N)=O)[C@@H](C)CC)NC(=O)[C@H]([C@@H](C)CC)NC(=O)[C@@H]2CCCN2C(=O)[C@@H]2CCCN2C(=O)[C@H](CC(C)(C)C)NC(=O)[C@H](CO)NC(=O)[C@H](CCCNC(=N)N)NC(=O)[C@H](CO)NC1=O
With B4, in assay [1], the “human MASP1 IC50” value came out at 44 nM. Further, in assay [2], the “human MASP2 IC50” value is 2200 nM.

For {2‑Hydroxyisobutyric}-ICSRS[tBuAla]PPICIPD-NH2 (disulfide 2-10) [Example 392: (2-Hydroxyisobutyric)-IC+SRS-((tBu)A)-PPIC+IPD-NH2], the “human MASP1 IC50” value in assay [1] is 47 nM. For the same molecule, the “human MASP2 IC50” value in assay [2] was found to be 80 nM.

B5: Example 388: IC+SRSLP-(Oic)-I-(Pen)+IPQ-OH (peptide)
peptide: ICSRSLP[Oic]I[Pen]IPQ-OH
modifications: disulfide 2-10; N-terminus assumed
SMILES: CC[C@H](C)[C@H](N)C(=O)N[C@H]1CSSC(C)(C)[C@@H](C(=O)N[C@H](C(=O)N2CCC[C@H]2C(=O)N[C@@H](CCC(N)=O)C(=O)O)[C@@H](C)CC)NC(=O)[C@H]([C@@H](C)CC)NC(=O)[C@@H]2C[C@@H]3CCCC[C@@H]3N2C(=O)[C@@H]2CCCN2C(=O)[C@H](CC(C)C)NC(=O)[C@H](CO)NC(=O)[C@H](CCCNC(=N)N)NC(=O)[C@H](CO)NC1=O
Consider B5, for which the “human MASP1 IC50” value in assay [1] turned out to be 45 nM. Besides, in assay [2], the “human MASP2 IC50” value amounted to 750 nM.
